# Experimental data taken from patent publication US12371675B2, “Process and microorganism for synthesis of adipic acid from carboxylic acids” (THE GOVERNING COUNCIL OF THE UNIVERSITY OF TORONTO, priority 2015, dated 2025).
# B1: NE2398: OYE protein from Nifrosomonas europaea ATCC 19718 (protein)
# chain: MLFNPLQVGSLTLPNRILLAPLTRARADAGHMPNALMAEYYSQRATGGLLISECTMVAPGTSAFVNEPGIYNDAQIAAWRQVTDAVHAKGGRIFMQIWHAGRAAYPGAADGAPIVSSSATAIEGEIHTPQGKVPHAVPRPLTVDEIPGIVAAFAQGARNAIAAGFDGVEVHGANGYLIDQFLRDTPNQRTDAYGGSLENRARLLFEVLTAVTQAIGSERVGLRLSPLNSFNSMKDSDPLALIGFLADRLNAFKLAYLHVMRADFFGVQKADVMPVAREKYKGVLVGNMGYSADEAEAAIAEGRLDAVAFGTAFLANPDLPARIRAKAPLNAPDSNTFYAGGAKGYTDYPTLQLA
# B2: PA2932: OYE protein from Pseudomonas aeruginosa PAO1 (protein)
# chain: MSNLLLSPLAVGNLALRNRIVMAPMTRSRAQQPGDVPTALNALYYAQRAGAGLIVSEGTQISHLGQGYAYTPGIYSEAQLAGWRQVTEAVHAAGGLIAAQLWHVGRMSHRSLQAGGEAPIAPSPIQAKAQVFIADGQGGGSMAPADAPREMTLEDIRRVRDEFVRAARNALDAGFDLVELHGANGYLIDQFLASASNRRSDAYGGSLENRARFLLEIVDALVAAVGAERVGLRLSPWGTINDMHDDEPEAMTLYLAEALQRRGIAYLHLAEWEWSGGPAYPQGFRERLRERFRAPLIVCGNYDAERAEAILQAGLADAVAIGRPFIANPDLVERIRLGAPLAEANQARFYGGDAAGYTDYPTLGQSATA
# B3: PS2358: OYE protein from Pseudomonas syringae pv. tomato str. DC3000 (protein)
# chain: MSALFEPFKLKDVTLRNRIAIPPMCQYSAIDGVVNDWHHVHLASMARGGAGLLVVEATAVAPEGRITPGCTGIWNDEQAQAFVPIVKAIKDAGCVPGIQIAHAGRKASANRPWEGDDHIVASDSRGWDTIAPSAIAFGANLPKVPRAMTLDDIARVRQNFVDAARRARDAGFEWIELHFAHGYLGQSFFSEHSNQRTDEYGGSFDNRSRFLLETLAAVREVWPENLPLTARFGVLEYDGRDEQTLTESIELARRFKAGGLDLLSVSVGFSTPDANIPWGPAFMGPIAERVRREAAIPVTSAWGFGEPKLAEEAVKSGQLDLVSIGRAHLADPHWAYFAAKELGVEKSAWTLPAPYAHWLERYR
# B4: PSPH1060: OYE protein from Pseudomonas syringae pv. phaseolicola 1448A (protein)
# chain: MSVEALFTPFRLGSLELSSRVVMAPMTRSFSPGHVPNSKVIEYYRRRAAAGVGLIVTEGTTVNHKASNGYPNVPQFFGDAPLAGWRKVVEAVHAEGGKIVPQLWHVGAVRRPGTEPDGSVPAYGPMEKVKDGQVLVHGMSKQDIDDVVAAFAQAAVDAKAIGMDGVEIHGAHGYLIDQFFWEGSNQRSDEYGGSLAKRSRFAIELIKAVRVAVGADYPIIFRFSQWKQQDYTARLVQTPEALGEFLQPLADAGVDIFHCSTRRFWEPEFEGSDLNLAGWTRKLTGKPTITVGSVGLDGEFLQFMVNTDKVAQPASLENLLKRLGNDEFDLVAVGRALLVDPDWALKVREGREQDILPFSREALTTLV
# B5: LMO2471: OYE protein from Listeria monocytogenes EGD-e (protein)
# chain: MSKLFSEYKLKDVTLKNRIVMSPMCMYSVENKDGIATDFHFAHYVSRAAGGTGLVILEATAVQEVGRISEFDLGLWNDEQVPALKKLVGGLHYHGAKAGIQLAHAGRKAVLPGEIVAPSAIAFDEKSDKPVELTKEAIKEVVADFKRAAYRAKEAGFDVIEIHAAHGYLIHQFLSPITNRREDNYGGPAGNRYKILSDIIKAVKEVWDGPIIVRVSATDYAHGGLQLEDHIPFAKWMKADGVELIDVSTGGLVNVAPPVFPGYQVPFADEIRRGAGIATGALGLITRGEQAEEILCNERADLIIVGRELLRNPYFAKDAAKQLGETIEAPKQYSRAWK
# B6: PP1244: OYE protein from Pseudomonas putida KT2440 (protein)
# chain: MSALFEPYTLKDVTLRNRIAIPPMCQYMAEDGMINDWHHVHLAGLARGGAGLLVVEATAVAPEGRITPGCAGIWSDAHAQAFVPVVQAIKAAGSVPGIQIAHAGRKASANRPWEGDDHIAADDARGWETIAPSAIAFGAHLPKVPREMTLDDIARVKQDFVDAARRARDAGFEWIELHFAHGYLGQSFFSEHSNKRTDAYGGSFDNRSRFLLETLAAVREVWPENLPLTARFGVLEYDGRDEQTLEESIELARRFKAGGLDLLSVSVGFTIPDTNIPWGPAFMGPIAERVRREAKLPVTSAWGFGTPQLAEAALQANQLDLVSVGRAHLADPHWAYFAAKELGVEKASWTLPAPYAHWLERYR
# B7: PSPH1370: OYE protein from Pseudomonas syringae pv. phaseolicola 1448A (protein)
# chain: MSLLLEPYTLRQLTLRNRIAVSPMCQYSSVDGLANDWHLVHLGSRAVGGAGLVITEAMAVTPDGRITPEDLGLWNDEQIEPLQRITRFINAQGAVAGIQLAHAGRKASTWRPWLGKHGSISLNEGGWTPVGPSAIAFDPQHTAPVQLSETQIQELIKAFVDSARRALTAGFKVVEIHAAHGYLLHQFLSPLSNQRTDQYGGSFENRIRLTLQVTEAVRAVWPEELPLFVRVSATDWVEDGWNADETVELARRLKALGTDLIDVSSGGTSANAEIPVGPGYQTRFAERVRKESEIATGTVGMITDPAQAEHILRTGQADIILLARELLRDPYWPLRADEDLGGRLATWPAQYQRATHRDQPIHESDLRD
# B8: PS1143: OYE protein from Pseudomonas syringae pv. tomato str. DC3000 (protein)
# chain: MSAAALFTPFRLGGLELSSRVVMAPMTRSFSPGHVPNSKVIEYYRRRAAAGVGLIITEGTTVNHPASNGYPNVPQFFGDAPLAGWKKVVDAVHAEGGKIAPQLWHVGAVRRLGTEPDGSIPAYGPMEKVKDGQVLVHGMSKQDIDEVVAAFAQAAADAKAIGMDGVEIHGAHGYLVDQFFWEGSNQRSDEYGGSLANRSRFAIELIKAVRAAVGPDYPIIFRFSQWKQQDYSARLVQTPEALGEFVQPLSDAGVDIFHCSTRRFWEPEFEGSELNLAGWTRKLTGKPTITVGSVGLDGEFLQFMVNTEKVAQPASLENLLERLGKDEFDLVAVGRALLVDPDWAVKVREGREQDILPFSREALTTLV
# B9: PP0911: OYE protein from Pseudomonas putida KT2440 (protein)
# chain: MTTLFDPIKLGDLQLPNRIIMAPLTRCRADEGRVPNALMAEYYVQRASAGLILSEATSVSPMGVGYPDTPGIWNDEQVRGWNNVTKAVHAAGGRIFLQLWHVGRISHPSYLNGELPVAPSAIQPKGHVSLVRPLSDYPTPRALETEEINDIVEAYRSGAENAKAAGFDGVEIHGANGYLLDQFLQSSTNQRTDRYGGSLENRARLLLEVTDAAIEVWGAQRVGVHLAPRADAHDMGDADRAETFTYVARELGKRGIAFICSREREADDSIGPLIKEAFGGPYIVNERFDKASANAALASGKADAVAFGVPFIANPDLPARLAADAPLNEAHPETFYGKGPVGYIDYPRL
# B10: PA4356: OYE protein from Pseudomonas aeruginosa PAO1 (protein)
# chain: MATLFDPIVLGDLELPNRIVMAPLTRCRADEGRVPNALMAEYYAQRADAGLILSEATAVTPMGVGYPDTPGIWSDDQVRGWSNVTKAVHAAGGRIFLQLWHVGRISDPLYLNGELPVAPSAIAAEGHVSLVRPKRPYVTPRALDTEEIADIVEAYRQGAERAKAAGFDGVEIHGANGYLLDQFLQDSTNKRTDRYGGSIENRARLLLEVTDAAISVWGAQRVGVHLAPRADSHDMGDSNRLETFSHVARELGKRGIAFICAREAQADDSIGVALKKAFGGPYIANEQFTLDSANAILAKGDADAVAFGVPFIANPDLVERLRQGAELNPPRPETFYTGGTEGYLDYPTLA
# B11: PP1466: OYE protein from Pseudomonas putida KT2440 (protein)
# chain: MSLLLEPYTLRQLTLPNRIAVSPMCQYSAIDGLANDWHLVHLGCRAVGGAGLVISEAVAVTADGRITAEDLGLWNDDQIVPLQRITRFITAQGAVPGIQLAHAGRKASTYRPWLGKQGSVKLEDGGWQPVGPSKIAFDPQHTPPRELSKDEIQDVIDAFVASTERALKAGFKVVEIHAAHGYLLHQFLSPLSNQRRDEYGSCFENRIRLTLQVVEAVRKVWPAELPLFVRVSATDWVEDGWNPDETVELARRLRVLGVDLIDVSSGGTSVNAEIPTGPGYQTRFAERVRKEAEIATGTVGMITEPAQAEHILRTGQADVIFLARELLRDPYWPLHADDDLGGNKATWPAQYQRATSRANPIHESDLRD
# B12: PS4251: OYE protein from Pseudomonas syringae pv. tomato str. DC3000 (protein)
# chain: MTTIFDPITLGDLQLPNRIILAPLTRCRADEGRVPNALMSEYYVQRASAGLILTEATSVTPMGVGYPDTPGIWSNDQVRGWSNITQAVHNAGGRIVLQLWHVGRISHPSYLNGETPVAPSAIAAQGHVSLMRPITPLPTPRALELAEIGDIVEAYRVGAENAKAAGFDGVEVHGANGYLLEQFLLTGSNQRTDQYGGSLENRARLLLEVTDAVIDVWGAGRVGVHLSPRFDMHNMSDENRAETFSYVAKELGKRGIAFICARERDAEDSLGPQLKKDFGGVYIANEKFTKDSANAWLAEGKADAFAFGVPYIANPDLPERLASDAPLNEAHPETFYGKGPVGYIDYPRL
# Experiment: OYE hydrogenation activity screen, NADPH oxidation at 340 nm
# Type: biochemical
# Conditions: 1 mM substrate, 0.25 mM NADPH, 2.5 μg protein; cut-off 0.05 U/mg protein; ND = not detected
# Description: 25 putative OYE genes (Table 1) were cloned based on the Pfam domain of the FMN oxidoreductase family PF00724. Purified OYEs were screened for hydrogenation activity against acrolein, 2-cyclohexn-1-one, cis,cis-muconic acid, trans,trans-muconic acid, and 2-hexendioic acid. Substrate specificity was measured spectrophotometrically in 96-well plates by following incubation for 20 min at room temperature in the anaerobic chamber. Buffers and reagents were also degassed and sparged with Ar. Reaction mixtures contained potassium phosphate (50 mM and pH 7.0), NaCl (10 mM), NADPH (0.25 mM), various substrates (1 mM) and protein (2.5 μg) in a final volume of 200 μL. Enzyme reactions were monitored by following the decrease in absorbance at 340 nm (ε340 nm=6,200/M·cm) as a measure of the conversion of the cofactor NADPH to NADP+.
Molecule,Activity [U/mg protein] 2-cyclohexen-1-one,Activity [U/mg protein] acrolein [U/mg protein]
B1,0.19 U/mg protein,
B2,13 U/mg protein,
B3,0.13 U/mg protein,
B4,0.14 U/mg protein,
B5,0.08 U/mg protein,
B6,0.25 U/mg protein,0.06
B7,0.18 U/mg protein,
B8,0.18 U/mg protein,
B9,0.15 U/mg protein,
B10,.15 U/mg protein,
B11,0.14 U/mg protein,
B12,0.09 U/mg protein,
